Test results taken from patent publication US20230051715A1 (MABWELL THERAPEUTICS, published 2023).

T1: C1s in normal cynomolgus monkey serum (CMS, CompTech NCYS) (cynomolgus monkey, UniProt A0A2K5VQX9 16-685)
T1 sequence: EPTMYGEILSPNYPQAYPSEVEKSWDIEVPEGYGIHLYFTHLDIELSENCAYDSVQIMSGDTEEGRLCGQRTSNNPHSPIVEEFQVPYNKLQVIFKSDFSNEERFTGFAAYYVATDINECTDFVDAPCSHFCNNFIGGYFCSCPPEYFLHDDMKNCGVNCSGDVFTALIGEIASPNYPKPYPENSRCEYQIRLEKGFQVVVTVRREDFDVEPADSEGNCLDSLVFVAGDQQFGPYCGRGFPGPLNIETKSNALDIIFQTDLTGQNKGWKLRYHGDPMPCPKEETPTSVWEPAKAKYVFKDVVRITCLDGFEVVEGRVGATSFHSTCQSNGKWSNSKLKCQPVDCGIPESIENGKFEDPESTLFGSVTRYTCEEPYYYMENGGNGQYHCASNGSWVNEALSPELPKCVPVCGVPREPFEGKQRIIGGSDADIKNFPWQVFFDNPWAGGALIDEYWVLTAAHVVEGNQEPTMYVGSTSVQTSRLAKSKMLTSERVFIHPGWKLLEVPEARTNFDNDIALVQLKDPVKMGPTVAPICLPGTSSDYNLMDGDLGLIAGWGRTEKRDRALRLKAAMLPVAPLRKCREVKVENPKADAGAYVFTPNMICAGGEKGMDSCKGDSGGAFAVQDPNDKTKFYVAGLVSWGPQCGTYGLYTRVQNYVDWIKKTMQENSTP

T2: human C1s mutant M8 (E351A) (human, UniProt P09871 16-688)
T2 construct: The entry is the mutant itself
T2 sequence: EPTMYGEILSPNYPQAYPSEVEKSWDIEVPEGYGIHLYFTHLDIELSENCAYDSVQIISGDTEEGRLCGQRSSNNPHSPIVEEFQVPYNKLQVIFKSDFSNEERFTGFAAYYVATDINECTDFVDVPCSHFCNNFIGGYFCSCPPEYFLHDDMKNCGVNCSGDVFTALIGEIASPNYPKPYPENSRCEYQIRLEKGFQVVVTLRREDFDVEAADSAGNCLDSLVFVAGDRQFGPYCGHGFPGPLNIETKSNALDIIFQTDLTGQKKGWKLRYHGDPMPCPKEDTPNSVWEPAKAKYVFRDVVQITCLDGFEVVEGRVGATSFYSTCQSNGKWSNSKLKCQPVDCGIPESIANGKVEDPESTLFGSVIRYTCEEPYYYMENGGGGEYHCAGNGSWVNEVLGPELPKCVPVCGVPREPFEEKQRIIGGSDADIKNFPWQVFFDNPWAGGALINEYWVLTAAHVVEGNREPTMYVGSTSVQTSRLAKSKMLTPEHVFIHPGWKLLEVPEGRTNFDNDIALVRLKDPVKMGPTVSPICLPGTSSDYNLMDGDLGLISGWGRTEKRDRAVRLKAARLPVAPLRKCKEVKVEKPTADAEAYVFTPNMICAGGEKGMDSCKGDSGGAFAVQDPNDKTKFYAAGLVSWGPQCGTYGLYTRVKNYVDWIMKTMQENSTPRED

T3: human C1s mutant M16 (R368H) (human, UniProt P09871 16-688)
T3 construct: The entry is the mutant itself
T3 sequence: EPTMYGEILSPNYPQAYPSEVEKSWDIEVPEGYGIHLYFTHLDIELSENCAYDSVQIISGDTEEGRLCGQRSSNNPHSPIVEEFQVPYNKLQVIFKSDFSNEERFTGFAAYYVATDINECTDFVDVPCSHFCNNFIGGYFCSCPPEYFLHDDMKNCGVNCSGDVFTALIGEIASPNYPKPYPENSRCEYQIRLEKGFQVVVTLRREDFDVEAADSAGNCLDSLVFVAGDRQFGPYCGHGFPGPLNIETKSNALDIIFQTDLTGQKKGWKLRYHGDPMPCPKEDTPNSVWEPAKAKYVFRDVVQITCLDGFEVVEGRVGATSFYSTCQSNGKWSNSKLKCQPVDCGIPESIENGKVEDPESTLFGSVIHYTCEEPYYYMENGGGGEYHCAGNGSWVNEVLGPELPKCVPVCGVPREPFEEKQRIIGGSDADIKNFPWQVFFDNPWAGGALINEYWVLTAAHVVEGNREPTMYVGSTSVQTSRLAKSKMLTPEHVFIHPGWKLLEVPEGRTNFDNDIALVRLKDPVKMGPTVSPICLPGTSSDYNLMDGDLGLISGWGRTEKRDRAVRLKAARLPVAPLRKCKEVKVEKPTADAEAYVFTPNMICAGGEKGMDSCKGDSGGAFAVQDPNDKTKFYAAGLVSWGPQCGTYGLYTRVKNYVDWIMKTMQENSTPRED


Columns and labels:
[1] = target: T1, C1s in normal cynomolgus monkey serum …; experiment: cell-based or functional assay
[2] = target: T2, human C1s mutant M8 (E351A); experiment: ELISA, plate coated with human C1s mutant M8: E351A, OD450nm
Method: (§1) ELISA was carried out by first coating 96-well plates with 200 ng/well of full-length or truncated C1s proteins overnight. The next morning, plates were blocked with SuperBlock T20 blocking buffer (Thermo Scientific 37536) for 1 h with gentle shaking. Then, various concentrations of anti-C1s antibodies diluted in SuperBlock T20 blocking buffer were added to the plates and incubated for 1 h with gentle shaking. Mouse IgG (Sigma-Aldrich 15381) and human IgG1 (BioXCell BP0297) were used as negative controls. The plates were washed before incubating with HRP conjugated secondary antibodies diluted in SuperBlock T20 blocking buffer (goat anti-mouse IgG (H+L) cross-adsorbed secondary antibody HRP (Invitrogen G-21040) or goat anti-human IgG antibody, HRP conjugate (Millipore AP309P)) for 1 h with gentle shaking. At last, the plates were washed and color developed with ELISA liquid HRP substrate (Sigma-Aldrich), followed by stopping the reaction with addition of 1M H₂SO₄ in the same volume as the ELISA liquid substrate. Bound antibody was measured by absorbance at OD₄₅₀ₙₘ.
(§2) Binding of anti-C1s antibodies to mutants M1-M20 of human C1s was measured by ELISA as described in Example 4, and results are shown in FIGS. 6B-6U. All anti-C1s humanized variants including hz2-7(H1L2), hz2-8(H1L2 G80A) and hz2-8(H1L2 G80A/T82A) maintained strong binding properties to the majority (16 out of 20) of C1s mutants including M1 (FIG. 6B), M2 (FIG. 6C), M3 (FIG. 6D). M4 (FIG. 6E), M7 (FIG. 6H), M8 (FIG. 6I), M10 (FIG. 6K), M11 (FIG. 6L), M12 (FIG. 6M), M13 (FIG. 6N), M15 (FIG. 6P), M16 (FIG. 6Q), M17 (FIG. 6R), M18 (FIG. 6S), M19 (FIG. 6T) and M20 (FIG. 6U).

[3] = target: T3, human C1s mutant M16 (R368H); experiment: ELISA, plate coated with human C1s mutant M16: R368H, OD450nm
Method: as §1, §2

Binder	IC50, inhibition of IgM-induced C4 deposition from CMS [1] [µg/mL]	IC50, inhibition of cynomolgus monkey complement-mediated lysis of EA [1] [µg/mL]	EC50 [2] [µg/mL]	EC50 [3] [µg/mL]	IC50, inhibition of IgM-induced C4 deposition from cynomolgus monkey serum [1] [µg/mL]
Anti-C1s antibody 2-7 (antibody, human IgG1, kappa, V domains shown, the HC/LC entries may hold it too; also called clone 2-7) VH: EVKLEESGGGLVPPGGSMKLSCVASGFTFSNYFMNWVRQSPEKGLEWVAEIRLKFTNYATHYAESVEGRFTISRDDSKSSVYLQMNNLRAEDTGIYYCTRDYGSRNGYFDYWGQGTTLTVSS VL: DIVMTQAAPSVPVTPGESVSISCRSSKSLLHSNGNTFLYWFLQRPGQSPQLLIYRMSNLASGVPDRFSGSGSGTAFTLRVSRVEAEDVGIYYCMQHLEYPYTFGGGTKLEIKT	–	–	–	–	~0.3
Anti-C1s antibody hz2-8 (H1L2 G80A) (antibody, V domains shown, Humanized variant with G80A in HC CDR2 (already in the entry), human IgG1 / kappa) VH: QVQLVQSGAEVKKPGASVKVSCKASGFNIKEYYMHWVRQAPEQGLEWMGWIDPENADTIYAQKFQGRVTITADTSTNTAYMELSSLRSEDTAVYYCARSRLFFAYWGQGTLVTVSS VL: DIQMTQSPKSLSASVGDRVTITCRASQDVRTALDWYQQKPGQSPKLLIYSASYRYSGVPSRFSGSGSGTDFTLTISSLQPEDFATYYCQQQYTTPYTFGQGTKLEIKR	0.5	–	0.01	0.006	–

Other lines, results leading:

IC50, inhibition of IgM-induced C4 deposition from CMS [1] [µg/mL]	IC50, inhibition of cynomolgus monkey complement-mediated lysis of EA [1] [µg/mL]	EC50 [2] [µg/mL]	EC50 [3] [µg/mL]	IC50, inhibition of IgM-induced C4 deposition from cynomolgus monkey serum [1] [µg/mL]	Binder
0.9	0.8	0.016	0.006	–	Anti-C1s antibody hz2-7(H1L2) (antibody, V domains shown, Humanized, human IgG1 / kappa; also called hz2-7(1L2)) VH: EVQLLESGGGLVQPGGSLRLSCAASGFTFSNYFMNWVRQAPGKGLEWVSEIRLKFTNYATHYADSVKGRFTISRDDSKSTLYLQMNSLRAEDTAVYYCTRDYGSRNGYFDYWGQGTLVTVSS VL: DIVMTQTPLSLPVTPGEPASISCRSSKSLLHSNGNTFLYWFLQKPGQSPQLLIYRMSNLASGVPDRFSGSGSGTDFTLKISRVEAEDVGVYYCMQHLEYPYTFGGGTKLEIKR
–	–	–	–	~0.5	Anti-C1s antibody 2-8 (antibody, V domains shown, the HC/LC entries may hold it too; also called clone 2-8) VH: EVQLQQSGAELVRPGALVKLSCKASGFNIKEYYMHWVKQRPEQGLEWIGWIDPENGDTIYDPKFQGKASITADTSSNTAYLQLSSLTSEDTAVYYCARSRLFFAYWGQGTLVTVSA VL: DIVMTQSHKFMSTSVGDRVSFTCKASQDVRTAVDWYQQKPGQSPKLLIYSASYRYTGVPDRFTGTGSGTDFTFTISSVQAEDLAVYFCQQQYTTPYTFGGGTKLEIKT
0.4	–	0.011	0.009	–	Anti-C1s antibody hz2-8 (H1L2 G80A/T82A) (antibody, V domains shown, Humanized variant with G80A and T82A in HC CDR2 (already in the entry), human IgG1 / kappa) VH: QVQLVQSGAEVKKPGASVKVSCKASGFNIKEYYMHWVRQAPEQGLEWMGWIDPENADAIYAQKFQGRVTITADTSTNTAYMELSSLRSEDTAVYYCARSRLFFAYWGQGTLVTVSS VL: DIQMTQSPKSLSASVGDRVTITCRASQDVRTALDWYQQKPGQSPKLLIYSASYRYSGVPSRFSGSGSGTDFTLTISSLQPEDFATYYCQQQYTTPYTFGQGTKLEIKR
